The supplement of paper PMC7125110
± gives the standard error. This sample holds only a part of the variants without activity.

B1: glmS ribozyme (parent)
chain: AUAAAAGCGCCAGAACUACAGAAAUGUAGUUGACGAGGAGGAGGUUUAUCGAAUUUUCGGCGGAUGCCUCCAAA

Variants of: B1
Experiment: self-cleavage kobs at 2500 uM GlcN6P; higher = faster cleavage; RNA array
Conditions: with glucosamine-6-phosphate
In short: (§1)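 On sequenced MiSeq chips, barcoded ribozyme variants were made in situ by E. coli RNA polymerase and followed at 37 °C through a hybridised Cy3 probe. Glucosamine-6-phosphate was flowed in at 40 μM to 10 mM in HEPES/KCl/Mg(OAc)2 buffer. Exponential fits to normalised per-tile medians gave kobs, and weighted Michaelis–Menten fits gave kcat and KM.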

Variant | self-cleavage kobs at 2500 uM GlcN6P [s⁻¹]
AUAAAAGUGCCAGAACUACAGAAAUGUAGUUGAUGAGGAGUAGGUUUAUCGAAUUUUCGGCGGAUGCCUCCAAA [C8U C34U G41U] | < 1e-05
AUAAAUGCACCAGAACUACAGAAAUGUAGUUGACGAGGAGGCGGUUUAUCGAAUUUUCGGCGGAUGCCUCCAAA [A6U G9A A42C] | < 1e-05
AUAAAAGCGCCAGAACUACAGAAAUGUAGGCGACGAGGAGGAGGUUCAUCGAAUUUUCGGCGGAUACCUCCAAA [U30G U31C U47C G66A] | 2.71e-05 ± 1.2e-05
AUAAAAGCGCCAGAACUACAGAAAUGUAGUUGACGAAGAGGAGGUUUAGCGAAUUUUCGGCGGAUGCCUUCAAA [G37A U49G C70U] | 7.97e-05 ± 2e-05
AUAAAAGCGCCAGAACUACAGAAAUGUAGUUGACUAGGAGGAGGUUUAUCGAACUUUAGGCGGAUGCCUCCAAA [G35U U54C C58A] | < 1e-05
AUAAAAGCGCUAGAAAUACAGAAAUGUAGUUGACGAGGAGGAGUUUUAUCGAAUUUUCGACGGAUGCCUCCAAA [C11U C16A G44U G60A] | < 1e-05
AUAAAAGCGCCAGUACUACAGAAAUGUAGUUGACGAGGACGAGGUUUAUCGAAUUUUCGGCGGAUCCCUCCAAA [A14U G40C G66C] | 9.83e-05 ± 2.2e-05
AUAAAAGCGCCAGAACUACAGAAAUGUAGUUGACGAGGAGGAGGUUUAUCGUAUUUUCGGGGGAUGUCUCCAAA [A52U C61G C67U] | 8.45e-05 ± 3e-05
AUAAAAGCGCCAGAACUACAGAAAUUUAGUUCACUAGUAGGAGGUUUAUCGAAUUUUCGGCGCAUGCCUCCAAA [G26U G32C G35U G38U G63C] | < 1e-05
AUAAAAGCGCCAGAACUACAGAAAUGUAGUUAACCAGGAGGAGCUUUAUCGAAUUGUCGGCGGAUGCCUCCAAA [G32A G35C G44C U56G] | < 1e-05
AUAAAAGCGCCAGAACUACAGAAAUGUAGGUGACGAGGAGGAGGUUUAGCGAAAUUUCGGCGGAUGCCUCCAAA [U30G U49G U54A] | 4.83e-05 ± 2.3e-05
AUAAAAGCGCCAGAACUACAGAAAUGUAGUAGACCAGGUGGAGGUUUAUCGAAUUUUCGGCGGAUGACUUCAAA [U31A G35C A39U C67A C70U] | < 1e-05
AUAAAAGCACCAGAACUACAGAAAUGUAGUUGAAGAGGAGGAGGUUUAGCGAAUUUUCGGCGGAUGCCUCCAAA [G9A C34A U49G] | < 1e-05
AUAAAAGCACCAGAACUACAGAAAUGUAGUUGACCAGGAGGAGGUUUAUCGAAUUUUCGGCGGCUGCCUCUAAA [G9A G35C A64C C71U] | < 1e-05
AUAAAAGCACCAGAACUACAGAAAUGUAGUUGACGAGGAUGAGGUUUAUCGAAUUUUCGGCGAUUGCCUCCAAA [G9A G40U G63A A64U] | < 1e-05
AUAAAAGCUCCAGAACUACAGAAAUGUAGUUGACGAGGAAGAGGUUUAUCGAAUUUUCGUCGGAUGCCUCCAAA [G9U G40A G60U] | < 1e-05
AUAAAAGUGCCAGAACUACAGAAAUGUAGUUGACGAGGAGGAGGUUUAUCGAAUUUUCGUCGGAUGCCUGCAAA [C8U G60U C70G] | < 1e-05
AUAAAAGCGCCAGAACUACAGAAAUGUAGUUGACGAGGAGGAGGUUAAUCGAAUCUUCGGCGGAUGCCCCCAAA [U47A U55C U69C] | 0.000127 ± 4.1e-05

Variant | self-cleavage kobs at 2500 uM GlcN6P [s⁻¹]
AUAAAAGAGCCAGAACUACAGAAAUGUAGUUGACGAGGAGGAGGUUUAUCGAAUUUUAGGCGGCUGCCUCCAAA [C8A C58A A64C] | < 1e-05
AUAAACGCGCCAGAACUACAGAAAUGUAGUUGACGAGGAGGAGGUUUCUCUAAUUUUCGGCGGAUGCCUCCAAA [A6C A48C G51U] | < 1e-05
AUAAAAGAGCCACAACUACAGAAAUGUAGUUGACGGGGAGGAGGUUUAUCGAAUUGUCGGCGGAUGCCUUCAAA [C8A G13C A36G U56G C70U] | < 1e-05
AUAAAAGCGCCAGAACUACAGAAAUGUAGUUGACGAGGAGUAGGUUUAUCGAAUUUUAGGCGGGUGCCACCAAA [G41U C58A A64G U69A] | < 1e-05
AUAAAAGCGCCAGAACUACAGAAAUGUAGUUGACGAGGAGGAGGUUUAUCGAAUUUUCGGUGGAAGUCUACAAA [C61U U65A C67U C70A] | 5.06e-05 ± 2.1e-05
AUAAAAGCGCCAGAACUACAGAAAUGUAGUCGACAAGGAGGAGGUUUAUCGAAUUUUCGGCGGAUGCCUCUAAA [U31C G35A C71U] | < 1e-05
AUAAAAGCGGCAGCACUACAGAAAUGUAGUUGACGAGGAGGAGGUUUCUUGAAUUUUCGGCGGAUGCCUCCAAA [C10G A14C A48C C50U] | < 1e-05
AUAAAAGCGCCAGAACUACAGAAAUGUAGGUGACGAGGAGGGGGUUUAUCGAAUUUUCGGCGGAGGUCUCCAAA [U30G A42G U65G C67U] | 0.000104 ± 3.7e-05
AUAAAAGCGCCAGAUCUACAGAAAUGUAGCAGACGAGGAGGAGGUUUAUCGAAUUUUCGGCGGAUGCCUCCAAA [A15U U30C U31A] | 0.0213 ± 0.0088
AUAAACGCGCCAGAGCUACAGAAAUGUAGCUGACGAGGAGGAGGUUUAUCGAAUUUUCGGCGGAUGCCUCCAAA [A6C A15G U30C] | 2.76e-05 ± 1.3e-05
AUAAAAGCGCCAGAACUACAGAAAUGUAGUUGACGAGGAUGAGGUUUAUCGAGUUUUCGGCGGACGCCUCCAAA [G40U A53G U65C] | 4.92e-05 ± 1.4e-05
AUAAAAGCGCCAGAACUACAGAAAUGUAGUUGAUGAGGCGGAGGUUUAUCGAAUUUUCAGCGGAUGCCUCCAAA [C34U A39C G59A] | < 1e-05
AUAAAAGCGCCAGAACUACAGAAAUGUAGUUUAUGAGGAGGGGGUCUAUCGAAUUUUCGGCGGCUGCCUCCAAA [G32U C34U A42G U46C A64C] | < 1e-05
AUAAAAGUCCGAGCACUACAGAAAUGUAGUUGACGAGGAGGAGGGUUAUGGAAUUUUCGGCGGAUGCCUCGAAA [C8U G9C C11G A14C U45G C50G C71G] | < 1e-05
AUAAACGCGCCACAACUACAGAAAUGUAAGUUGAGAGGAGGAGGUUUAUUGAAUUUUCGGCGGAUGCCUCCAAA [A6C G13C G29A U30G G32U A33G C34A C50U] | < 1e-05
AUAAAAGCGCCAGAACUACAGAAAUGUAGUUUACGAGGAGGAGGUUUAUCGAAUUGUCGGCGGAUUCCUCCAAA [G32U U56G G66U] | 6.54e-05 ± 1.6e-05
AUAAAAGCGCCAGAACUACAGAAAUGUAGUUGACGAGGGGGAGGUUUAUCGAAUCUUCGGCGGGUGCCUCCAAA [A39G U55C A64G] | 0.00694 ± 0.0013
AUAAAAGCGCCAGCACUACAGAAAUGUAGUCGACGGGCAGUAGGUUUAUCUAAUUUUCGGCGGAUGCCUCCAAA [A14C U31C A36G G38C G41U G51U] | < 1e-05

Variants of: B1
Experiment: self-cleavage kobs at 10000 uM GlcN6P; higher = faster cleavage; RNA array
Conditions: with glucosamine-6-phosphate
In short: as §1

Variant | self-cleavage kobs at 10000 uM GlcN6P [s⁻¹]
AUAAAAGCGCCAGUACUACAGAAAUGUAGUUGACGAGGACGAGGUUUAUCGAAUUUUCGGCGGAUCCCUCCAAA [A14U G40C G66C] | 0.00012 ± 2.4e-05
